Assay: yeast display, Sf9 membrane polyspecificity reagent, FACS + sequencing; frameworks hold sequencing errors
In short: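 A nanobody's polyreactivity label depends on the gate it was sorted from. Yeast display cells were stained with 10% biotinylated, detergent-solubilized Sf9 membrane reagent for 1 hour at 4 °C, enriched on streptavidin microbeads and sorted by FACS. The low and high (top ~1%) gates were set on anti-HA fluorescence for expression and streptavidin fluorescence for reagent binding.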

| Sequence | polyreactivity (PSR sort gate) |
| --- | --- |
| QVQLVESGGGLVQAGGSLRLSCAASGSIFYFNDMGWYRQAPGKEREFVARITRSGSSTSYADSVKGRFTISRDNAKNTVYLQMNSLKPEDTAVYYCAARYRRYSTSRYYYWGQGTQVTVSS | high polyreactivity |
| QVQLVESGGGLVQAGGSLRLSCAASGSIFYFYAMGWYRQAPGKERELVAAISFSGTRTYYADSVKGRFTISRDNAKNTVYLQRNSLKPEDTAVYYCNAVAYNYPRTYDYWGPGTQVTVSS | high polyreactivity |
| QVQLVESGGGLVQAGGSLRLSCAASGSIFYFYAMGWYRQAPGKERELVAAISRSVGSTNYADSVKGRFTISRDNAKNTVYLQMNSLKPEDTAVYYCAARRYGAYYWGQGTQVTVSS | high polyreactivity |
| QVQLVESGGGLVQAGGSLRLSCAASGSIFYFYAMGWYRQAPGKERELVAAITSGGSTYYADSVEGRFTISRDNAKNTVYLQMNSLKPEDTAVYYCNAVSSYGYDYWGQGTQVTVSS | high polyreactivity |
| QVQLVESGGGLVQAGGSLRLSCAASGSIFYFYDMGWYRQAPGKERELVAAISLDDGGTYYADSVKGRFTISRDNAKNTVYLQMNSLKPEDTAVYYCAADYYYWYQIYDYWGQGTQVTVSS | high polyreactivity |
| QVQLVESGGGLVQAGGSLRLSCAASGSIFYFYTMGWYRQAPGKERELVASITYSGGRTYYADSVKGRFTISRDNAKNSVYLQMNSLKPEDTAVYYCAVRGYRRYWGQGTQVTVSS | high polyreactivity |
| QVQLVESGGGLVQAGGSLRLSCAASGSIFYGNAMGWYRQAPGKERELVAAISKRGGSTYYADSVKGRFTISRDNAKNTVYLQMNSLIPEDTAVYYCDKGSAGHTEYYYWGQGTQVTVSS | high polyreactivity |
| QVQLVESGGGLVQAGGSLRLSCAASGSIFYGNAMGWYRQAPGKERELVAAISYRGVRTYYADSVKGRFTISRDNAKNTVYLQMNSLKPEDTAVYYCAATQGYRREYDYWGQGTQVTVSS | high polyreactivity |
| QVQLVESGGGLVQAGGSLRLSCAASGSIFYGNTMGWYRQAPGKERELVAAIDYRGDSTYYADSVKGRFTISRDNAKNTVYLQMNSLKPEDTAVYYCAADQTPFGQVYYGTLSIRDYWGQGTQVTVSS | low polyreactivity |
| QVQLVESGGGLVQAGGSLRLSCAASGSIFYGNTMGWYRQAPGKERELVAAISSGGGSTYYADSVKGRFTISRDNAKNTFYSKMNSMKPEETAVYYCAKRTYKQASGYWYDSWGQGTKVTVSS | high polyreactivity |
| QVQLVESGGGLVQAGGSLRLSCAASGSIFYGYAMGWYRPAPGKERELVAAINWSGGGTYYADSVKGRFTISRDNAKNTVYLQMNSLKPEDTAVYYCAAGHVVRRPYLIYDYWGQGTQVTVSS | high polyreactivity |
| QVQLVESGGGLVQAGGSLRLSCAASGSIFYGYAMGWYRQAPGKERELVAAINWSGGGTYYADSVKGRFTISRDNAKNTVYLQMNSLKPEDTAVYYCAAGHVVRRPYLIYDYWGQGTQVTVSS | high polyreactivity |
| QVQLVESGGGLVQAGGSLRLSCAASGSIFYGYAMGWYRQAPGKERELVAAITSGGRTYYADSVKGRFTISRDNAKNTVYLQMNSLKPEDTAVYYCNKLNYWSVRYEYWGQGTQVTVSS | high polyreactivity |
| QVQLVESGGGLVQAGGSLRLSCAASGSIFYGYAMGWYRQAPGKERELVARITGSGGDTSYADSVKGRFTISRDNAKNTVYLQMNSLKPEDTAVYYCAKRGYHFLTKYDYWGQGTQVTVSS | low polyreactivity |
| QVQLVESGGGLVQAGGSLRLSCAASGSIFYGYAMGWYRQAPGRERELVAAIRYRGGRTDYGDSVKGRFTISRDNAKKTVYLQMNSLKPEDTAVYYCAKDLIRYGYLTYVYWGQGTQVTVSS | high polyreactivity |
| QVQLVESGGGLVQAGGSLRLSCAASGSIFYGYAMGWYRQAPRKERELVAAISSSGGSTYYADSVKGRFTISRDTAKNTVYLQMNSLKPEDTAVSYCARSRSYWGIVYGRYDYWGQGTQVTVSS | high polyreactivity |
| QVQLVESGGGLVQAGGSLRLSCAASGSIFYGYDMGWYRQAPGKERELVATISWSSGSSTYYADSVKGRFTISRDNAKNTVYLQMNSLKPEDTAVYYCAVDFAIGYRYLGRVDYWGQGTQVTVSS | low polyreactivity |
| QVQLVESGGGLVQAGGSLRLSCAASGSIFYGYDMGWYRQAPGKERELVATISWSSGSSTYYADSVKGRFTISRDNAKNTVYLQMNSLKPEYTAVYYCAVDFAIGYRYLGRVDYWGQGTQVTVSS | low polyreactivity |
| QVQLVESGGGLVQAGGSLRLSCAASGSIFYGYVMGWYRQARGKERELVAAITRSGSTYYADSVKGRFTISRDNAKNTVYLQMNSLKPEDTAVYYCAAAAKRKYYWGQGNQVTVSS | high polyreactivity |
| QVQLVESGGGLVQAGGSLRLSCAASGSIFYHNAMGWYRQAPGKERELVAAITWSGSTTYYADSVKGRFTISRDNAKKTVYLQMNSLKPEDTAVYYCNAGHRHGHYDYWGQGTQVTVSS | low polyreactivity |
| QVQLVESGGGLVQAGGSLRLSCAASGSIFYHYAMGWYRQAPGKERELVAAISSGGSTSYADSVKGRFTFSRDNAKNTVYLQMNSLKPEDTAVYYCNARRIRSRSWKYDYWGQGTQVTVSS | low polyreactivity |
| QVQLVESGGGLVQAGGSLRLSCAASGSIFYIYAMGWYRKAPGKERELVASIDSGDSTNYADSVKGRFTISRDNAKNTVYLQMNSLKPEDTAVYYCNADTYSEITYYLYIGMDYWGQGTQVTVSS | low polyreactivity |

| Sequence | polyreactivity (PSR sort gate) |
| --- | --- |
| QVQLVESGGGLVQAGGSLRLSCAASGSIFYIYAMGWYRPAPGKEREFVAAITWTGGSTYYADSVKGRFTISRDNAKNTVYLQMNSLKPEDTAVYYCARATVGAWRKMYSWGQGTQVTVSS | high polyreactivity |
| QVQLVESGGGLVQAGGSLRLSCAASGSIFYIYAMGWYRQAPGKEREFVAAISWIGGSTYYADSVKGRFTISRDNAKNTVYLQMNSLKPEDTAVYYCAAETFTDYDYWGQGTQVTVSS | high polyreactivity |
| QVQLVESGGGLVQAGGSLRLSCAASGSIFYIYAMGWYRQAPGKERELVAGIRNGGSTKYADSVKGRFTISRDNAKNTVYLQMNSLKPEDTAVYYCAARYYRPYTSSWAHNYRLDDWGQGSQVTVSS | high polyreactivity |
| QVQLVESGGGLVQAGGSLRLSCAASGSIFYIYVMGWYRQAPGKERELVAAISSGGTTNYADSVKGRFTISRDNAKNTVYLQMNSLIPEDTAVYYCAADVLIARYPGYSYEYWGQGTQVTVSS | low polyreactivity |
| QVQLVESGGGLVQAGGSLRLSCAASGSIFYKNAMGWYRQAPGKERELVAAISYSGGSTYYADSVKGRFTISRDNAKNTVYLQMNSLKPEDTAVYYCAAKGGAWGQGTQVTVSS | high polyreactivity |
| QVQLVESGGGLVQAGGSLRLSCAASGSIFYLNAMGWYRPAPGKERELVAAIRWSGGSTRYADSVKGRFTISRDNAKITVYLQLNSLKPEDTAVYSCAADTYVYTLGRYYYWGQGTQVTVSS | high polyreactivity |
| QVQLVESGGGLVQAGGSLRLSCAASGSIFYLNAMGWYRQAPGKERELDAAIRWSGGSTRYADSVKGRFTISRDNAKNTVYLQMNSLKPEDTAVYYCAKYNPVLVYHWWYYYWGQGTQVTVSS | high polyreactivity |
| QVQLVESGGGLVQAGGSLRLSCAASGSIFYLYAMGWYRPAPGKERELVAAISRSGASTYYADSVKGRFTISRDNAKNTVYLQMNSLKPEDTAVYYCAAYKIWGRVRYDYWGQGTQVTVSS | low polyreactivity |
| QVQLVESGGGLVQAGGSLRLSCAASGSIFYLYAMGWYRQAPGKESELVAAITSGDSTTYADSVKWRFTISRDYAKNTVYLQMNSLKPEDTAVYYCAADWPGLVGYHNSAENDYWGQGTQVTVSS | low polyreactivity |
| QVQLVESGGGLVQAGGSLRLSCAASGSIFYNAMGWYRQAPGKERELVAAISYRGGRTYYADSVKGRFTISRDNAKNTVYLQMNSLKPEDTAVYYCAADSTVGRYPYDYWGPGTQVTVSS | high polyreactivity |
| QVQLVESGGGLVQAGGSLRLSCAASGSIFYNNAMGWYRQAPGKERELVATISDGGGSTYYADSVKGRFTISRDNAKNTVYLQMNSLKPEDTAVYYCAAPYYWGQGTQVTVSS | low polyreactivity |
| QVQLVESGGGLVQAGGSLRLSCAASGSIFYNNVMGWYRQAPGKERELVAVISGGGSTNYADSVKGRFTISRDNAKNNVYLHMNSLKREDTAVYYCAARGRYSYGDRYEYWGQATQVTVSS | low polyreactivity |
| QVQLVESGGGLVQAGGSLRLSCAASGSIFYNTMGWYRQAPGKERELVAAITSGGSTYYADSVKGRFTISRDNAKNTVYLQMNSLKPEDTAVYYCAAESYYCGYQWLYFEYGYWGQGTQVTVSS | low polyreactivity |
| QVQLVESGGGLVQAGGSLRLSCAASGSIFYPNAMGWYRQAPGKERELVAAITVGGGRTYYADSVKGRFTISRDNAKNTVYLQMNSLKPEDTAVYYCAAQEIVRYPRFDKYDYWGQGTQVTVSS | low polyreactivity |
| QVQLVESGGGLVQAGGSLRLSCAASGSIFYPNAMGWYRQAPGKERELVATIRRRGGSTYYADSVKGRFTISRDNAKNTVYLQMHSLKPEDTAVDYCAVGSPTPYRALDLYDYWGQGTQVTVSS | high polyreactivity |
| QVQLVESGGGLVQAGGSLRLSCAASGSIFYPNAMRWYRQAPGKQRELVAVITGGATTYYADSVKGRFTISRDYAKNTVYLQRNSLNPEDTAVDYCAADSAENVYRGYDWGQGTQVTVSS | low polyreactivity |
| QVQLVESGGGLVQAGGSLRLSCAASGSIFYPNVMGWDRQAPGKERELVAAIRTSGGSTYYADSVKGRFTISRDNAKNTVYLQMNSLKPEDTAVYYCAADYIYVKYEYWGQGTQVTVSS | high polyreactivity |
| QVQLVESGGGLVQAGGSLRLSCAASGSIFYPNVMGWYRQAPGKERELVATISWSGGNTYYADSVKGRFTISRDNAKNTVYLQMNSLKPEDTAVYYCAADQWSQDYDYWGQGTQVTVSS | low polyreactivity |
| QVQLVESGGGLVQAGGSLRLSCAASGSIFYPYAMGWYRQANGKERELDAAITWRGGRTYYADSVKGRFTISRDNAKNTVYLQMNSLKPEDTAVYYCAAGWLTRSYEYDYWGQGTQVTVSS | high polyreactivity |
| QVQLVESGGGLVQAGGSLRLSCAASGSIFYPYAMGWYRQAPGKERELVAAINWGGTITYYADSVKGRFTISRDNAKNTVYLQMNSLKPEDTAVYYCAAKYKGYRYYYWGQGTQVTVSS | high polyreactivity |
| QVQLVESGGGLVQAGGSLRLSCAASGSIFYPYAMGWYRQAPGKERELVAAIRFSGGRTYYADSVKGRFTISRDNAKNTVYLQMNSLKPEDTAVYYCAAEYYGIYSPYDYWGQGTQVTVSS | high polyreactivity |

— the nanobody polyreactivity screen of Harvey et al. (2022)
